{"source": "paper PMC5379037", "binders": {"B1": {"name": "W-box probe (dsDNA)", "DNA 1": "CGTTGACCGTTGACCGAGTTGACTTTTTA", "DNA 2": "TAAAAAGTCAACTCGGTCAACGGTCAACG"}, "B2": {"name": "mW-box probe (dsDNA)", "DNA 1": "CGTAGACGGTAGACGGAGTAGACGTTTTA", "DNA 2": "TAAAACGTCTACTCCGTCTACCGTCTACG"}}, "molecular_target": "GST-CaWRKYa (Capsicum annuum, UniProt Q1XD53 1-546)", "sequence (Q1XD53 entry or part of it)": "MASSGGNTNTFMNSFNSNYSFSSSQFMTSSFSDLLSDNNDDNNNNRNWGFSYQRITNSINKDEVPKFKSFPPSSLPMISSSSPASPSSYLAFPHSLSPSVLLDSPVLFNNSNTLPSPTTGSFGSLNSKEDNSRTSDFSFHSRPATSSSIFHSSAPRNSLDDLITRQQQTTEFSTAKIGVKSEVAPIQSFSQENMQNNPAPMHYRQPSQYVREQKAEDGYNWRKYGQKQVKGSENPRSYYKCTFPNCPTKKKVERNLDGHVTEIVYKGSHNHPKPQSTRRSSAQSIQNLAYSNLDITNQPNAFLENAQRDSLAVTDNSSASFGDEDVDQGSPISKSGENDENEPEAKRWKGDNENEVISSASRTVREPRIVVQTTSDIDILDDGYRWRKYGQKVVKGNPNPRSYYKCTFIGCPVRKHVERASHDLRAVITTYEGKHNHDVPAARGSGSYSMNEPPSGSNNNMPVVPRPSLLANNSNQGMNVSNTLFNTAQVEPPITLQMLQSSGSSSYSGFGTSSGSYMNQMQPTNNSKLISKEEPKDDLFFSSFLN", "test": "EMSA; 5 ug protein; EMSA: 4 C, 30 min, 5% native polyacrylamide gel in 0.5x TBE; 5 ug protein (0.5 ug in Fig. S5b); binding buffer, salt and pH not stated"}
{"binder": "B1", "values": [{"measurement": "binding result", "value": "binds"}]}
{"binder": "B2", "values": [{"measurement": "binding result", "value": "no binding"}]}
